In patent publication US20250257133A1 (ADAGENE PTE, published 2025):

These binders were tested against Human CD28 (ELISAs of Examples 4 and 13) (human, UniProt P10747 19-152, limits assumed) (assay: ELISA).

Binder	EC50 [nM]
TY27566 (bispecific antibody, human IgG1, kappa, N297A, also called anti-HER2xCD28 BsAb; TY27566 (WT)) light: not shown heavy: EVQLVESGGGLVQPGGSLRLSCAASGFTFTDYTMDWVRQAPGKGLEWVADVNPNSGGSIYNQRFKGRFTLSVDRSKNTLYLQMNSLRAEDTAVYYCARNLGPSFYFDYWGQGTLVTVSSASTKGPSVFPLAPSSKSTSGGTAALGCLVKDYFPEPVTVSWNSGALTSGVHTFPAVLQSSGLYSLSSVVTVPSSSLGTQTYICNVNHKPSNTKVDKKVEPKSCDKTHTCPPCPAPELLGGPSVFLFPPKPKDTLMISRTPEVTCVVVDVSHEDPEVKFNWYVDGVEVHNAKTKPREEQYASTYRVVSVLTVLHQDWLNGKEYKCKVSNKALPAPIEKTISKAKGQPREPQVYTLPPSRKKLTKNQVKLTCLVKGFYPSDIAVEWESNGQPENNYKTTPPVLDCDGSFFLYSKLTVDKSRWQQGNVFSCSVMHEALHNHYTQKSLSLSPGK DIQLTQSPSSLSASVGDRVTITCRASQSVDFHGISFLHWYQQKPGKAPKLLIYAASSLQSGVPSRFSGSGSGTDFTLTISSLQPEDFATYYCQQSYRSPRTFGQGTKVEIKGGGGSGGGGSGGGGSGGGGSEVQLVESGGGLVQPGGSLRLSCAASGFSLSTGGVGVSWIRQAPGKGLEWIGEIYHSGSTYYSPSLKSRVTISRDNSKNTLYLQLNSLRAEDTAVYYCARYEYYYYDFDYWGQGTLVTVSSEPKSSDKTHTCPPCPAPELLGGPSVFLFPPKPKDTLMISRTPEVTCVVVDVSHEDPEVKFNWYVDGVEVHNAKTKPREEQYASTYRVVSVLTVLHQDWLNGKEYKCKVSNKALPAPIEKTISKAKGQPREPQVYTDPPSRDELTKNQVSLTCLVDGFYPSDIAVEWESNGQPENCYKTTPPVLDSDGSFFLYSKLTVDKSRWQQGNVFSCSVMHEALHNHYTQDSLSLSPGK	3.89
TY28655 (bispecific antibody, human IgG1, kappa, N297A, anti-HER2 Fab x CD28 scFv BC8233 (VL-VH)-Fc) light: not shown heavy: EVQLVESGGGLVQPGGSLRLSCAASGFTFTDYTMDWVRQAPGKGLEWVADVNPNSGGSIYNQRFKGRFTLSVDRSKNTLYLQMNSLRAEDTAVYYCARNLGPSFYFDYWGQGTLVTVSSASTKGPSVFPLAPSSKSTSGGTAALGCLVKDYFPEPVTVSWNSGALTSGVHTFPAVLQSSGLYSLSSVVTVPSSSLGTQTYICNVNHKPSNTKVDKKVEPKSCDKTHTCPPCPAPELLGGPSVFLFPPKPKDTLMISRTPEVTCVVVDVSHEDPEVKFNWYVDGVEVHNAKTKPREEQYASTYRVVSVLTVLHQDWLNGKEYKCKVSNKALPAPIEKTISKAKGQPREPQVYTLPPSRKKLTKNQVKLTCLVKGFYPSDIAVEWESNGQPENNYKTTPPVLDCDGSFFLYSKLTVDKSRWQQGNVFSCSVMHEALHNHYTQKSLSLSPGK DIQLTQSPSSLSASVGDRVTITCRASQSVDFYGISFLHWYQQKPGKAPKLLIYAASSLQSGVPSRFSGSGSGTDFTLTISSLQPEDFATYYCQQSYRTPRTFGQGTKVEIKGGGGSGGGGSGGGGSGGGGSEVQLVESGGGLVQPGGSLRLSCAASGFSLSTSGVGVSWIRQAPGKGLEWIGSIYHSGSTYYNPSLKSRVTISRDNSKNTLYLQLNSLRAEDTAVYYCARYEYDYYAFDYWGQGTLVTVSSEPKSSDKTHTCPPCPAPELLGGPSVFLFPPKPKDTLMISRTPEVTCVVVDVSHEDPEVKFNWYVDGVEVHNAKTKPREEQYASTYRVVSVLTVLHQDWLNGKEYKCKVSNKALPAPIEKTISKAKGQPREPQVYTDPPSRDELTKNQVSLTCLVDGFYPSDIAVEWESNGQPENCYKTTPPVLDSDGSFFLYSKLTVDKSRWQQGNVFSCSVMHEALHNHYTQDSLSLSPGK	8.14
TY28652 (bispecific antibody, human IgG1, kappa, N297A, anti-HER2 Fab x CD28 scFv BC8227 (VL-VH)-Fc) light: not shown heavy: EVQLVESGGGLVQPGGSLRLSCAASGFTFTDYTMDWVRQAPGKGLEWVADVNPNSGGSIYNQRFKGRFTLSVDRSKNTLYLQMNSLRAEDTAVYYCARNLGPSFYFDYWGQGTLVTVSSASTKGPSVFPLAPSSKSTSGGTAALGCLVKDYFPEPVTVSWNSGALTSGVHTFPAVLQSSGLYSLSSVVTVPSSSLGTQTYICNVNHKPSNTKVDKKVEPKSCDKTHTCPPCPAPELLGGPSVFLFPPKPKDTLMISRTPEVTCVVVDVSHEDPEVKFNWYVDGVEVHNAKTKPREEQYASTYRVVSVLTVLHQDWLNGKEYKCKVSNKALPAPIEKTISKAKGQPREPQVYTLPPSRKKLTKNQVKLTCLVKGFYPSDIAVEWESNGQPENNYKTTPPVLDCDGSFFLYSKLTVDKSRWQQGNVFSCSVMHEALHNHYTQKSLSLSPGK DIQLTQSPSSLSASVGDRVTITCRASQSVDFYGKSFLHWYQQKPGKAPKLLIYAASSLESGVPSRFSGSGSGTDFTLTISSLQPEDFATYYCQQSYRSPPTFGQGTKVEIKGGGGSGGGGSGGGGSGGGGSEVQLVESGGGLVQPGGSLRLSCAASGFSLSTGGVGVSWIRQAPGKGLEWIGSIYHSGSTYYNPSLKSRVTISRDNSKNTLYLQLNSLRAEDTAVYYCARYEYDYYAFDYWGQGTLVTVSSEPKSSDKTHTCPPCPAPELLGGPSVFLFPPKPKDTLMISRTPEVTCVVVDVSHEDPEVKFNWYVDGVEVHNAKTKPREEQYASTYRVVSVLTVLHQDWLNGKEYKCKVSNKALPAPIEKTISKAKGQPREPQVYTDPPSRDELTKNQVSLTCLVDGFYPSDIAVEWESNGQPENCYKTTPPVLDSDGSFFLYSKLTVDKSRWQQGNVFSCSVMHEALHNHYTQDSLSLSPGK	3.68

More lines, in order of falling EC50, values ahead:

EC50 [nM]	Binder
128	TY28656 (bispecific antibody, human IgG1, kappa, N297A, anti-HER2 Fab x CD28 scFv BC8235 (VL-VH)-Fc) light: not shown heavy: EVQLVESGGGLVQPGGSLRLSCAASGFTFTDYTMDWVRQAPGKGLEWVADVNPNSGGSIYNQRFKGRFTLSVDRSKNTLYLQMNSLRAEDTAVYYCARNLGPSFYFDYWGQGTLVTVSSASTKGPSVFPLAPSSKSTSGGTAALGCLVKDYFPEPVTVSWNSGALTSGVHTFPAVLQSSGLYSLSSVVTVPSSSLGTQTYICNVNHKPSNTKVDKKVEPKSCDKTHTCPPCPAPELLGGPSVFLFPPKPKDTLMISRTPEVTCVVVDVSHEDPEVKFNWYVDGVEVHNAKTKPREEQYASTYRVVSVLTVLHQDWLNGKEYKCKVSNKALPAPIEKTISKAKGQPREPQVYTLPPSRKKLTKNQVKLTCLVKGFYPSDIAVEWESNGQPENNYKTTPPVLDCDGSFFLYSKLTVDKSRWQQGNVFSCSVMHEALHNHYTQKSLSLSPGK DIQLTQSPSSLSASVGDRVTITCRASQSVDFYGKSFLHWYQQKPGKAPKLLIYAASSLQSGVPSRFSGSGSGTDFTLTISSLQPEDFATYYCQQSYRTPRTFGQGTKVEIKGGGGSGGGGSGGGGSGGGGSEVQLVESGGGLVQPGGSLRLSCAASGFSLSTSGVGVGWIRQAPGKGLEWIGEIYHSGSTNYNPSLKSRVTISRDNSKNTLYLQLNSLRAEDTAVYYCARYEYGYYALDYWGQGTLVTVSSEPKSSDKTHTCPPCPAPELLGGPSVFLFPPKPKDTLMISRTPEVTCVVVDVSHEDPEVKFNWYVDGVEVHNAKTKPREEQYASTYRVVSVLTVLHQDWLNGKEYKCKVSNKALPAPIEKTISKAKGQPREPQVYTDPPSRDELTKNQVSLTCLVDGFYPSDIAVEWESNGQPENCYKTTPPVLDSDGSFFLYSKLTVDKSRWQQGNVFSCSVMHEALHNHYTQDSLSLSPGK
68.4	TY28654 (bispecific antibody, human IgG1, kappa, N297A, anti-HER2 Fab x CD28 scFv BC8230 (VL-VH)-Fc) light: not shown heavy: EVQLVESGGGLVQPGGSLRLSCAASGFTFTDYTMDWVRQAPGKGLEWVADVNPNSGGSIYNQRFKGRFTLSVDRSKNTLYLQMNSLRAEDTAVYYCARNLGPSFYFDYWGQGTLVTVSSASTKGPSVFPLAPSSKSTSGGTAALGCLVKDYFPEPVTVSWNSGALTSGVHTFPAVLQSSGLYSLSSVVTVPSSSLGTQTYICNVNHKPSNTKVDKKVEPKSCDKTHTCPPCPAPELLGGPSVFLFPPKPKDTLMISRTPEVTCVVVDVSHEDPEVKFNWYVDGVEVHNAKTKPREEQYASTYRVVSVLTVLHQDWLNGKEYKCKVSNKALPAPIEKTISKAKGQPREPQVYTLPPSRKKLTKNQVKLTCLVKGFYPSDIAVEWESNGQPENNYKTTPPVLDCDGSFFLYSKLTVDKSRWQQGNVFSCSVMHEALHNHYTQKSLSLSPGK DIQLTQSPSSLSASVGDRVTITCRASQSVDFYGKSFLHWYQQKPGKAPKLLIYAASSLQSGVPSRFSGSGSGTDFTLTISSLQPEDFATYYCQQSYRTPLTFGQGTKVEIKGGGGSGGGGSGGGGSGGGGSEVQLVESGGGLVQPGGSLRLSCAASGFSLSTSGVGVSWIRQAPGKGLEWIGSIYHSGSTYYNPSLKSRVTISRDNSKNTLYLQLNSLRAEDTAVYYCARYEYGYYAFDYWGQGTLVTVSSEPKSSDKTHTCPPCPAPELLGGPSVFLFPPKPKDTLMISRTPEVTCVVVDVSHEDPEVKFNWYVDGVEVHNAKTKPREEQYASTYRVVSVLTVLHQDWLNGKEYKCKVSNKALPAPIEKTISKAKGQPREPQVYTDPPSRDELTKNQVSLTCLVDGFYPSDIAVEWESNGQPENCYKTTPPVLDSDGSFFLYSKLTVDKSRWQQGNVFSCSVMHEALHNHYTQDSLSLSPGK
7.3	TY28653 (bispecific antibody, human IgG1, kappa, N297A, anti-HER2 Fab x CD28 scFv BC8228 (VL-VH)-Fc) light: not shown heavy: EVQLVESGGGLVQPGGSLRLSCAASGFTFTDYTMDWVRQAPGKGLEWVADVNPNSGGSIYNQRFKGRFTLSVDRSKNTLYLQMNSLRAEDTAVYYCARNLGPSFYFDYWGQGTLVTVSSASTKGPSVFPLAPSSKSTSGGTAALGCLVKDYFPEPVTVSWNSGALTSGVHTFPAVLQSSGLYSLSSVVTVPSSSLGTQTYICNVNHKPSNTKVDKKVEPKSCDKTHTCPPCPAPELLGGPSVFLFPPKPKDTLMISRTPEVTCVVVDVSHEDPEVKFNWYVDGVEVHNAKTKPREEQYASTYRVVSVLTVLHQDWLNGKEYKCKVSNKALPAPIEKTISKAKGQPREPQVYTLPPSRKKLTKNQVKLTCLVKGFYPSDIAVEWESNGQPENNYKTTPPVLDCDGSFFLYSKLTVDKSRWQQGNVFSCSVMHEALHNHYTQKSLSLSPGK DIQLTQSPSSLSASVGDRVTITCRASQSVDFYGISFLHWYQQKPGKAPKLLIYAASSLQSGVPSRFSGSGSGTDFTLTISSLQPEDFATYYCQQSYRTPPTFGQGTKVEIKGGGGSGGGGSGGGGSGGGGSEVQLVESGGGLVQPGGSLRLSCAASGFSLSTGGVGVSWIRQAPGKGLEWIGSIYHSGSTYYNPSLKSRVTISRDNSKNTLYLQLNSLRAEDTAVYYCARYEYGYYALDYWGQGTLVTVSSEPKSSDKTHTCPPCPAPELLGGPSVFLFPPKPKDTLMISRTPEVTCVVVDVSHEDPEVKFNWYVDGVEVHNAKTKPREEQYASTYRVVSVLTVLHQDWLNGKEYKCKVSNKALPAPIEKTISKAKGQPREPQVYTDPPSRDELTKNQVSLTCLVDGFYPSDIAVEWESNGQPENCYKTTPPVLDSDGSFFLYSKLTVDKSRWQQGNVFSCSVMHEALHNHYTQDSLSLSPGK
